# Assay results reported in US12527876B2, “Insulin-like growth factor-chemotherapeutic conjugate for treating myelodysplastic syndrome” (IGF Oncology, LLC, priority 2017, dated 2026).
# T1: dihydrofolate reductase (DHFR) (Homo sapiens, UniProt P00374)
# T1 construct: purchased Sigma-Aldrich
# T1 sequence (P00374 1-187): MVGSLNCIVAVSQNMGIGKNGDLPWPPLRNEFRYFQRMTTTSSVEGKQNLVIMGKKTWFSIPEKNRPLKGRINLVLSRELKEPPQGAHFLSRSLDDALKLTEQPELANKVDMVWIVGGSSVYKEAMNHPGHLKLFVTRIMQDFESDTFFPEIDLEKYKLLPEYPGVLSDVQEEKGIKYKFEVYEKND
# B1: IGF132: variant of IGF-1, SEQ ID NO: 4, disclosed in U.S. Pat. No. 4,876,242 (protein)
# chain: FVNQHLCGSHLVEALYLVCGDRGFYFNKPTGYGSSSRRAPQTGIVDECCFRSCDLRRLEMYCAPLKPAKSA
# B2: LR3IGF-MTX (conjugate)
# chain: MFPAMPLSSLFVNGPRTLCGALVDALQFVCGDRGFYFNKPTGYGSSSRRAPQTGIVDECCFRSCDLRRLEMYCAPLKPAKSEA
# How the values were obtained:
# [1] = design: species or system Beagle dogs; settings: dog, in vivo
# Text: Toxicokinetic (TK) parameters for free MTX were estimated from plasma concentration-time data arising from a 5-dose once weekly intravenous infusion study with insulin-like growth factor (IGF) MTX conjugate at low (0.5 μEq/kg), mid (2.0 μEq/kg) and high (4.0 μEq/kg) MTX equivalent dose levels. No consistent differences in the plasma levels of MTX were observed between animals of different genders and thus data from males and females were combined. Plasma levels of MTX increased with time both during and following a 1-hour intravenous infusion of the IGF-MTX conjugate. […] Both the AUC∞ and Cmax values were dose proportional. […] The pharmacokinetics of MTX following Day 29 of dosing were similar to those following Day 1 of dosing.
# Following intravenous administration of the IGF-MTX conjugate in the dose range of 0.5-4.0 μEq/kg to Beagle dogs, serum levels of the IGF-MTX conjugate decreased quickly. There was no gender bias and an increase in serum exposure was observed on Day 29 compared to Day 1. […] The elimination of the IGF-MTX conjugate was marginally slower with successive doses, resulting in an increased plasma exposure. The elimination of the IGF-MTX conjugate preceded the development of maximal MTX concentrations.
# [2] = rat, in vivo
# MDS = settings: higher-risk patients, phase III trial; cited from earlier work
# [3] = system: soluble IGF binding proteins; settings: compared to wild-type IGF-1; Francis 1992, Tomas 1993, U.S. Pat. No. 4,876,242; cited from earlier work
# MCF7 cells = assay: In vitro proliferation assay of MCF7 cells, tritiated thymidine (Example 15); type: cell-based, human
# Method: MCF7 was cultured in Eagle's Minimum Essential Medium, with 0.01 mg/ml human recombinant insulin, 10% fetal bovine serum, and pen/strep. For in vitro proliferation assays it was plated at 8,000 cells per well in a 96-well plate. […] After 5 more days, 1 uCi tritiated thymidine was added per well in 50 ul fresh medium. Six hours later the cells were harvested and radioactivity counted.
# MCF-7 tumor cells = assay: In vitro cytotoxicity assay: inhibition of proliferation of MCF-7 cells, CCK-8 (Example 6); type: cell-based; settings: Homo sapiens, MCF7, read-out: IC50 (50% inhibition of cell proliferation)
# Method: Day 0. Five-thousand MCF7 cells were plated per well in a 96-well test plate in 100 ul of rich media on day 0.
# Day 1. A shadow plate was made for each test plate, with each well of the shadow plate containing media or 3× the intended final concentration of test agent in media in each well. As a negative control, media is used.
# After making the shadow plate, 50 ul is transferred from each well of the shadow plate to the corresponding well of the test plate to generate the final concentrations of test agent in the wells of the test plate.
# Day 5. Cell proliferation is determined by adding Dojindo CCK-8 reagent and incubating and measuring absorbance of the dye according to the manufacturer's instructions.
# MCF7 tumors = assay: In vivo tumor growth inhibition, MCF7 xenografts; design: species or system nu/nu mice; settings: IV days 0, 4 and 8; IGF-MTX (long-R3-IGF-1-methotrexate) 10 nmol of MTX/g, free MTX 40 nmol/g
# Method: (§1) MCF7 cells (human breast adenocarcinoma cell line) were grown in Eagle's minimal essential medium supplemented with 0.1 mg/ml insulin and 10% FCS. The estrogen-dependent MCF7-L cell line was a gift from Deepali Sachdev of the University of Minnesota. MCF7-L cells were grown in modified IMEM medium (Invitrogen, Carlsbad, California, USA) supplemented with 0.1 mg/ml insulin. LNCaP cells (metastatic human prostatic adenocarcinoma) were grown in RPMI supplemented with glutamine and 10% FCS (Invitrogen, Carlsbad, California, USA). Cells were grown at 37° C. in a 5% CO2 humidified atmosphere. In each case, cells were grown to approximately two-thirds confluence, harvested by trypsinization, washed with rich medium and then washed twice with PBS and resuspended in phosphate buffered saline in BD matrigel matrix (Becton Dickinson, Franklin Lakes, New Jersey, USA). Cells were injected intradermally in mice on the back. An estrogen pellet (0.5 mg estradiol, 60-day release, Innovative Research of America, Sarasota, Florida, USA) was implanted subcutaneously between the shoulder blades two days before implanting MCF7 and MCF7-L cells. MCF7 and MCF7-L cells were implanted in 8-week-old female nu/nu mice. LNCaP cells were implanted in 8-week-old male nu/nu mice. The IGF-MTX conjugate was administered in 2 mM HCl, 1% glycerol. MTX was dissolved in PBS. […]
# LNCaP cells [4] = assay: In vitro proliferation assay of LNCaP cells, Cell Counting Kit-8; type: cell-based, human; settings: highest tested concentration of 2000 nM, P=0.003, IGF-MTX = long-R3-IGF conjugate
# Method: LNCaP cells were plated in a 96-well plate at 5,000 cells per well in RPMI+glutamine+10% FCS medium in 100 μl. After 24 hours, 100 μl fresh medium was added containing no drug (control), IGF-MTX or MTX at the indicated concentration. After 48 hours of further incubation, cell proliferation was assayed with the Cell Counting Kit-8 (Dojindo Molecular Technologies, Kumamoto, Japan) according to the manufacturer's instructions.
# MCF7-L tumors = assay: In vivo tumor growth inhibition, MCF7-L xenografts; design: species or system nu/nu mice; settings: day 22; IV days 0 and 5; IGF-MTX (long-R3-IGF-1-methotrexate) 10 nmol of MTX/g, free MTX 40 nmol/g
# Method: as §1, with “mice.” for “mice. LNCaP cells were implanted in 8-week-old male nu/nu mice. The IGF-MTX conjugate was administered in 2 mM HCl, 1% glycerol. MTX was dissolved in PBS.”
# The second in vivo study was conducted using an estrogen-dependent MCF7 strain, MCF7-L. Tumor cells were implanted, and mice were monitored for tumor growth. […]
# [5] = Solubility of IGF-1R ligand-MTX conjugates; type: physicochemical; settings: phosphate buffered saline, or any neutral pH solution containing salt, over about 50 mM NaCl
# [6] = target: T1, dihydrofolate reductase (DHFR); assay: Dihydrofolate reductase inhibition assay (Sigma-Aldrich kit); type: biochemical; settings: IC50 in nEq/L divided by MTX per IGF; read-out: inhibition constant in terms of protein concentration
# Method: The experiments were done with the dihydrofolate reductase assay kit from Sigma-Aldrich (St. Louis, MO, USA), according to the manufacturer's instructions. In the assay dihydrofolate reductase is mixed with pH 7.5 buffer. […] It was incubated for 30 seconds to allow inhibitor binding. Then NADPH is added to 50 uM final concentration, and then dihydrofolic acid is added to 60 uM final concentration. The reaction is monitored by measuring absorbance at 340 nm.
# LNCaP tumors = assay: In vivo tumor growth inhibition, LNCaP xenografts; design: species or system nu/nu mice; settings: LNCaP model, 8 nmol/g IGF-MTX vs. 50 nmol/g MTX
# Method: as §1, with “back.” for “back. An estrogen pellet (0.5 mg estradiol, 60-day release, Innovative Research of America, Sarasota, Florida, USA) was implanted subcutaneously between the shoulder blades two days before implanting MCF7 and MCF7-L cells. MCF7 and MCF7-L cells were implanted in 8-week-old female nu/nu mice. LNCaP cells were implanted in 8-week-old male nu/nu mice. The IGF-MTX conjugate was administered in 2 mM HCl, 1% glycerol. MTX was dissolved in PBS.”
# In a final in vivo study, prostate cancer LNCaP cells were implanted intradermally on day 0 in mice, which were then randomized to different treatment groups. […] Tumor size was much smaller in the groups treated with 8 nmol/g or 3.2 nmol/g of the IGF-MTX conjugate (dosage expressed as moles of each MTX molecule) compared to mice treated with higher doses of free MTX (50, 20 or 8 nmol/g). […]
# LNCaP cells [7] = settings: 48 hours, nM methotrexate groups, McTavish et al. 2009; cited from earlier work
molecule,measurement,setting,value
IGF-MTX,apparent clearance of MTX,[1],5.67 to 7.67 mL/min/kg
same,apparent volume of distribution of the IGF-MTX conjugate,[1],0.07 to 0.20 L/kg
same,decrease of apparent clearance on Day 29 compared to Day 1,[1],25-50%
same,mean residence time of the IGF-MTX conjugate,[1],1.4 to 5.3 h
same,terminal half-life of the IGF-MTX conjugate,[1],2.5 to 4.6 h
same,apparent clearance of the IGF-MTX conjugate,[1]; iv,0.33 to 0.83 mL/min/kg
same,decrease of platelets,[2],approximately 38%
same,increase of mean spleen weight,[2],17 to 38%
same,mean increases or decreases in blood glucose,[2],−1.8±7 to 7.5±3.4
same,reduction in neutrophils,[2],50-57%
same,reduction of WBC's,[2],5-35%
Nc1ncn([C@@H]2O[C@H](CO)[C@@H](O)[C@H]2O)c(=O)n1 [azacitidine],patients with responses,MDS,approximately 50%
same,survival at 2 years of follow-up compared to conventional care,MDS,doubled
"des(1-3)IGF1: lacks the first three residues of wild-type IGF-1, SEQ ID NO: 7 [reference compound]",binding affinity to the soluble IGF binding proteins,[3],reduced binding affinity
"CN(Cc1cnc2nc(N)nc(N)c2n1)c1ccc(C(=O)N[C@@H](CCC(=O)O)C(=O)O)cc1 [Methotrexate, methotrexate]",IC50,"MCF7 cells; Homo sapiens, MCF7, parallel assay, free drug",17 nM
same,IC50 of MTX lower than IGF-MTX,MCF7 cells; MCF-7 cells in vitro,about 50 fold
same,IC50,MCF-7 tumor cells,88 nM
same,tumor growth over 12 days of observation,MCF7 tumors,tumors continued to grow
same,inhibition of proliferation compared with IGF-MTX,LNCaP cells [4],significantly greater inhibition than IGF-MTX
same,tumor growth inhibition,MCF7-L tumors,inhibited about equally
insulin-MTX: insulin conjugated to methotrexate,solubility,[5],low solubility
B1,binding affinity to the soluble IGF binding proteins,[3],reduced binding affinity
B2,IC50,[6],35 nM
same,more effective than free MTX at fold lower molar dose of MTX groups,LNCaP tumors,at least 6 fold
same,solubility,[5],low solubility
same,IC50,LNCaP cells [7],~1000 nM
